Source: publication PMC9091212

Target: TGFβRII (UniProt P37173)
Assay: anti-FLAG IP, TGFβRII western blot
Conditions: reference: wild-type TGFβRI-FLAG; sites Y182

Q: Which “binding against the reference” value does the source give for TGFβRI (from UniProt P36897) Y182F here?
A: The value was “weaker”.
